Assay results from patent US20240368239A1, “Novel bispecific protein and use thereof” (SL METAGEN, priority 2020, published 2024).
“Also recorded” adds a separate entry of the source.

Legend:
GLP-1 receptor = GLP-1 receptor (Homo sapiens, UniProt P43220); settings: GLP-1 activity
Protocol: After culturing the cells in a 37° C., 5% CO2 incubator for about 16 hours, the cells were treated with 20 μL/well of a test solution of various concentrations to be evaluated and allowed to react in a 37° C., 5% CO2 incubator for 5 hours. After the reaction was complete, the plate was treated with Bright-Glo™ assay reagent at 100 μL/well, and then was allowed react at room temperature for 2 minutes. After the reaction was completed, the plate was inserted into a Luminometer and the degree of bioluminescence was measured.

Balb/c-nude mice = assay: PET-MRI tissue distribution of Zr89-labelled proteins; format: in vivo; settings: Zr89 label, SC
From the text: Next, the present inventors performed an experiment in Balb/c-nude mice in order to observe the distribution in each tissue organ following the administration of a substance. Zr^89 was used as a radiotracer for tracking the distribution after administration of each substance. Each substance to be administered was labeled with Zr^89 as a reaction condition and a chelator selected through a preliminary test. The labeled Zr^89-protein was purified using a PD-10 column, and Zr^89 labeling efficiency and purity were confirmed using Radio TLC and SEC-HPLC. The labeling efficiency of the Zr^89-protein of 90% or more and the purity of 80% or more were determined to be appropriate, and the labeled protein was administered subcutaneously at 0.2 mCi/0.2 cc. Each administration substance was administered to three animals and static images for 20 minutes were obtained using PET-MRI at 1 hour, 6 hours, 24 hours, 48 hours, and 168 hours after injection. Through image analysis, the distribution of drugs as a function of time in the liver, small intestine, and large intestine was expressed as SUV (Standardized Uptake Value) and comparatively analyzed.

B6 normal mice [1] = assay: Small intestine weight and body weight (GLP-1-Fc homodimer, GLP-2-Fc homodimer, MG12-1, MG12-4); format: in vivo; settings: SC twice a week, 4 doses; homodimers 10 nmol/kg, MG12 20 nmol/kg
From the text: In addition, the present inventors conducted the same experiment as above while only varying the administered substance, in order to confirm whether the bispecific fusion proteins (MG12-1 and MG12-4) designed in a form other than MG12-5 also increase the small intestine weight and energy absorption rate of experimental animals. Specifically, PBS, 10 nmol/kg GLP-1-Fc homodimer, 10 nmol/kg GLP-2-Fc homodimer, 20 nmol/kg MG12-1, and 20 nmol/kg MG12-4 were subcutaneously administered. The drug was administered twice a week for a total of 4 times for 2 weeks. After 4 doses, the body weight was measured before autopsy, and the small intestine was excised after the autopsy and weighed. After the autopsy, the entire gastrointestinal tract of the mouse was separated, the mesentery and the pancreas were excised, and the area where the ileum and the cecum meet was cut to separate the small intestine and the large intestine. The separated small intestine was perfused and washed with 10% neutral formalin to remove the contents, and was weighed after removing the neutral formalin with an absorbent towel.

[2] = In vivo pharmacokinetics profile after subcutaneous administration (GLP-1-Fc ELISA and GLP-2-Fc ELISA); set-up: species or system male SD (Sprague Dawley) rats; settings: rat, 1 mg/kg SC
Protocol: First, each protein was administered to 3 male SD (Sprague Dawley) rats per group at a dose of 1 mg/kg by subcutaneous (SC) route. Before injection and after 0.5, 1, 5, 10, 24, 48, 72, 120, and 168 hours after the injection, blood was collected and stored at room temperature for 30 minutes to aggregate. After centrifuging the aggregated blood at 3,000 rpm for 10 minutes, serum of each sample was collected and stored in a cryogenic freezer. Analyses were performed by an assay designed to specifically detect the GLP-1 site and Fc in the administered protein (GLP-1-Fc ELISA) and an assay designed to specifically detect the GLP-2 site and Fc in the administered protein (GLP-2-Fc ELISA). Specifically, a method of loading a biological sample on a plate coated with an antibody that binds to mouse-derived human immunoglobulin G4 (IgG4) to detect the target protein using a biotinylated anti-GLP-1 antibody (GLP-1-Fc ELISA), and a method of loading a biological sample on a plate coated with a monoclonal antibody that specifically reacts with GLP-2, to detect the target protein using a secondary antibody having HRP conjugated to mouse-derived human immunoglobulin G4 (IgG4) (GLP-2-Fc ELISA) were used. The obtained and prepared serum samples were loaded with appropriate dilutions to be analyzed at a position on a straight line of the standard curve.

B6 normal mice [3] = assay: Fluorescence spectrometry tissue distribution of Cy5.5-labelled substances; format: in vivo
Protocol: Next, the present inventors performed an experiment in B6 normal mice in order to observe the distribution in each tissue and organ according to the administration of a bispecific fusion protein according to an embodiment of the present invention. Cy5.5 was used as a fluorophore for tracking the distribution after administration of each substance. Buffer exchange was performed for each substance to be administered, MG12-1, MG12-4, and GLP-1Fc homodimer with boric acid buffer (pH 8.5), and with reference to the protocol of the Cy5.5 labeling kit (GE, #PA15605) were allowed to react with an appropriate amount of Cy5.5 overnight under refrigeration conditions. Unreacted Cy5.5 in the reaction-completed substance was removed through the PBS substitution process, and whether Cy5.5 was reacted well was confirmed through the final SDS-PAGE. Each administered substance was diluted with 10% DMSO/PBS to have the same fluorescence intensity using an ELISA plate reader capable of measuring fluorescence intensity before being administered.

[4] = 24 hours after administration, Cy5.5 label

Sequence of GLP-1 receptor (P43220 24-463, species assumed): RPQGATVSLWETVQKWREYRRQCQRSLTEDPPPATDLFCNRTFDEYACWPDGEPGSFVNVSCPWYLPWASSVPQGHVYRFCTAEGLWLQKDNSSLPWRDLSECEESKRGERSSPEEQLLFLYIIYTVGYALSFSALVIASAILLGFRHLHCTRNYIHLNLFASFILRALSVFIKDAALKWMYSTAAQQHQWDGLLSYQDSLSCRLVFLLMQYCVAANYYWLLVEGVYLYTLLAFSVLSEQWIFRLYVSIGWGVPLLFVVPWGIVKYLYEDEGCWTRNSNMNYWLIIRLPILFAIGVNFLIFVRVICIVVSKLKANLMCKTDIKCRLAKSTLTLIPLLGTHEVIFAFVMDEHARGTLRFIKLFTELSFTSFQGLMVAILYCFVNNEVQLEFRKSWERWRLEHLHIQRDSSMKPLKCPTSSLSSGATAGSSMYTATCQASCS

B1: MG12-1: Knob/hole Fc heterodimer: GLP-1 (SEQ 1), glycan linker, first fusion protein SEQ 24; GLP-2 (SEQ 17), second fusion protein SEQ 32 (protein)
chain 1: HGEGTFTSDVSSYLEGQAAKEFIAWLVKGRGGGGGSGGGGSGGGGSAKNTTAPATTRNTTRGGEEKKKEKEKEEQEERTHTCPPCPSHTQPLGVFLFPPKPKDTLMISRTPEVTCVVVDVSQEDPEVQFNWYVDGVEVHNAKTKPREEQFNSTYRVVSVLTVLHQDWLNGKEYKCKVSNKGLPSSIEKTISKAKGQPREPQVYTLPPCQEEMTKNQVSLWCLVKGFYPSDIAVEWESNGQPENNYKTTPPVLDSDGSFFLYSRLTVDKSRWQEGNVFSCSVMHEALHNHYTQKSLSLSLGK
chain 2: HGDGSFSDEMNTILDNLAARDFINWLIQTKITDGGGGSGGGGSGGGGSEKEKEEQEERTHTCPPCPSHTQPLGVFLFPPKPKDTLMISRTPEVTCVVVDVSQEDPEVQFNWYVDGVEVHNAKTKPREEQFNSTYRVVSVLTVLHQDWLNGKEYKCKVSNKGLPSSIEKTISKAKGQPREPQVCTLPPSQEEMTKNQVSLSCAVKGFYPSDIAVEWESNGQPENNYKTTPPVLDSDGSFFLVSRLTVDKSRWQEGNVFSCSVMHEALHNHYTQKSLSLSLGK
Question: For B1, which “activity reduced due to glycosylation” value (GLP-1 receptor) is on record?
Answer: about 11 times

Question: What about the “distribution to the liver (SUV)” value (Balb/c-nude mice) of the same molecule?
Answer: reduced or showed no difference compared to Fc

Question: And the “distribution to the small intestine and large intestine (SUV)” value (Balb/c-nude mice)?
Answer: significantly high compared to that of GLP-1-Fc homodimer and GLP-2-Fc homodimer

Question: And the small intestine weight (B6 normal mice [1])?
Answer: greater increase in small intestine weight than the GLP-2-Fc homodimer administered group; also recorded: superior effect of increasing small intestine weight

Question: And the “weight change before autopsy (body weight)” value (B6 normal mice [1])?
Answer: numerical increase in body weight

Question: What about the AUClast ([2]; GLP-1-Fc ELISA (Table 5)) of the same molecule?
Answer: 13919.8 ± 824.9 ng·h/mL

Question: And the Cmax ([2]; GLP-1-Fc ELISA (Table 5))?
Answer: 442.2 ± 20.8 ng/mL

Question: What about the Half-life ([2]; GLP-1-Fc ELISA (Table 5)) of the same molecule?
Answer: 16.5 ± 6.3 h

Question: What about the Tmax ([2]; GLP-1-Fc ELISA (Table 5)) of the same molecule?
Answer: 10 h

Question: What about the AUClast ([2]; GLP-2-Fc ELISA (Table 6)) of the same molecule?
Answer: 78639.0 ± 11205.3 ng·h/mL

Question: And the Cmax ([2]; GLP-2-Fc ELISA (Table 6))?
Answer: 1136.7 ± 261.0 ng/mL

Question: And the Half-life ([2]; GLP-2-Fc ELISA (Table 6))?
Answer: 43.7 ± 1.8 h

Question: And the Tmax ([2]; GLP-2-Fc ELISA (Table 6))?
Answer: 24.0 ± 0.0 h

Question: What about the “Average fluorescence intensity, Brain” value (B6 normal mice [3]; [4]) of the same molecule?
Answer: 489

Question: What about the “Average fluorescence intensity, Large intestine” value (B6 normal mice [3]; [4]) of the same molecule?
Answer: 3702

Question: And the “Average fluorescence intensity, Small intestine” value (B6 normal mice [3]; [4])?
Answer: 7320

Question: And the “distribution in the small intestine and the large intestine” value (B6 normal mice [3]; compared to GLP-1-Fc homodimer)?
Answer: larger
